# From US20260028418A1 (GC CELL, published 2026)
# Where a chain is given by its changes, count along the chain named.
# T1: HER4 (R&D Systems, #1131-ER-050) (human, UniProt Q15303 26-651)
# T1 construct: extracellular domain; Bought
# T1 sequence (looked up): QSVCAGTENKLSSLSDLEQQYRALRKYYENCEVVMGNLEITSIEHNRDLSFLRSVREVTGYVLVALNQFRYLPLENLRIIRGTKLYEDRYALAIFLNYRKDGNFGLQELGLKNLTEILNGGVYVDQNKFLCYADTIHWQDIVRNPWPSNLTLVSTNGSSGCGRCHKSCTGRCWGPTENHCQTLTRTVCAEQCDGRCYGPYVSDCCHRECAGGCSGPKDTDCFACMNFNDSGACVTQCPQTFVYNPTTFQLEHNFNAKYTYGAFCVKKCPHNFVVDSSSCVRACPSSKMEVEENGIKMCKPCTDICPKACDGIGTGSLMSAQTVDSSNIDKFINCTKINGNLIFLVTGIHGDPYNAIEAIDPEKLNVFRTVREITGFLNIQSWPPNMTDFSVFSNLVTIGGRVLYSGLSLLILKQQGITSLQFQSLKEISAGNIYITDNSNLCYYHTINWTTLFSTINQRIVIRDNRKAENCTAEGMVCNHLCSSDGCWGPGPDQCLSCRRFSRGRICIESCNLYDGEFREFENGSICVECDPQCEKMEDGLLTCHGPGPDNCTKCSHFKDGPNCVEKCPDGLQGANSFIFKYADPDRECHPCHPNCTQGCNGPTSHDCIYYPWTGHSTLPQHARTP
# B1: 1G3 (antibody, V domains shown)
# VH: EVQLQQSGAELVKPGASVKLSCTASDFNIVDTYMHWVKQRPEQGLEWIGRIDPANGYTRYDPNFQGKATITADTSSNTAYLQLSSLTSEDTAVYYCARYYYGFYAMDYWGQGTTVTVSS
# VL: DIVMTQSHKFMSTSVGDRVSITCKASQDVSTAVAWYQQKPGQSPKLLIYSASYRYTGVPDRFTGSGSGTDFTFTISSVQAEDLAVYYCQQHYSTPPTFGGGTKLELK
# B2: 24D3 (antibody, V domains shown)
# VH: EVKLVESGGGLVKPGGSLKLSCAASGFTFSSCAMSWVRQTPEKRLEWVATISGGGSYTYYPDSVKGRFTISRDNAKNTLYLQMSSLRSEDTAMYYCARHGGYESWFPYWGQGTLVTVSA
# VL: DIVMTQSPLSLPVSLGDQASISCRSSQSLVHSNGNTYLHWYLQKPGQSPKLLIYKVSNRFSGVPDRFSGSGSGTDFTLKISRVEAEDLGVYFCSQSTHVPPWTFGGGTKLEIK
# B3: hz2G10 (antibody, V domains shown)
# VH: EVQLVESGGGLVQPGGSLRLSCAASGFTFSDYYMYWVRQAPGKGLEWVAYINSGGGSTYYPDTVKGRFTISRDNAKNSLYLQMNSLRAEDTAVYYCAREALYDYDYAMDYWGQGTTVTVSS
# VL: DIVMTQSPLSLSVTPGQPASISCKSSQSLLYSNGKTYLNWLLQKPGQSPQRLIYLVSKLDSGVPDRFSGSGSGTDFTLKISRVEAEDVGVYYCVQGTHFPLTFGGGTKVEIK
# notes: Humanized antibody, detected with anti-human IgG-HRP; Only the variable domains are tied to the name; also called humanized 2G10 antibody
# B4: hz39D2 (antibody, V domains shown)
# VH: QVQLVQSGSELKKPGASVKVSCKASGYTFTNYGVNWVRQAPGQGLEWMGWINTHTGEPTYAEEFKGRFVFSLDTSVSTAYLQISSLKAEDTAVYYCARDDYYVRVDYWGQGTTVTVSS
# VL: DIQMTQSPSSLSASVGDRVTITCKASQDINSYLSWFQQKPGKAPKTLIYRANRLVDGVPSRFSGSGSGQDYTLTISSLQPEDFATYYCLQYDEFPWTFGQGTKVEIK
# notes: Humanized antibody, captured as IgG by anti-human IgG in SPR; also called humanized 39D2 antibody
# B5: hz39D2.22 (antibody, V domains shown)
# VH: B4 VH with D100E
# VL: B4 VL with Q90E, Y91L
# B6: hz39D2.14 (antibody, V domains shown)
# VH: B4 VH with D100E, V105T
# VL: B4 VL
# B7: hz39D2.23 (antibody, human IgG1, kappa, V domains shown)
# VH: B4 VH with D100E
# VL: DIQMTQSPSSLSASVGDRVTITCKASQDINSYLSWFQQKPGKAPKTLIYRANRLVDGVPSRFSGSGSGQDYTLTISSLQPEDFATYYCLQLDEFPWTFGQGTKVEIKR
# Biological target: T2, HER2-ECD-Fc (human, UniProt P04626 23-652)
# T2 construct: extracellular domain; Produced in FreeStyle 293F cells; also called HER2-ECD Fc fusion protein
# Assay: ELISA on HER2-ECD-Fc; antibody at 5 µg/mL
row,absorbance,Binder
1,2.81,B1
2,2.92,B2
3,2.79,B3
4,2.9,B4

# Biological target: T2, HER2-ECD-Fc
# Assay: ELISA on HER2-ECD-Fc; antibody at 50 µg/mL
row,absorbance,Binder
1,2.76,B1
2,2.75,B2
3,2.81,B3
4,2.83,B4

# Biological target: T2, HER2-ECD-Fc
# Assay: ELISA on HER2-ECD-Fc; antibody at 5 × 10^-1 µg/mL
row,absorbance,Binder
1,2.78,B1
2,2.9,B2
3,2.69,B3
4,2.78,B4

# Biological target: T2, HER2-ECD-Fc
# Assay: ELISA on HER2-ECD-Fc; antibody at 5 × 10^-2 µg/mL
row,absorbance,Binder
1,2.79,B1
2,2.76,B2
3,1.16,B3
4,2.92,B4

# Biological target: T2, HER2-ECD-Fc
# Assay: ELISA on HER2-ECD-Fc; antibody at 5 × 10^-3 µg/mL
row,absorbance,Binder
1,1.77,B1
2,1.13,B2
3,0.22,B3
4,2.29,B4

# Biological target: T2, HER2-ECD-Fc
# Assay: ELISA on HER2-ECD-Fc; antibody at 5 × 10^-4 µg/mL
row,absorbance,Binder
1,0.35,B1
2,0.22,B2
3,0.12,B3
4,0.47,B4

# Biological target: T2, HER2-ECD-Fc
# Assay: ELISA on HER2-ECD-Fc; antibody at 5 × 10^-5 µg/mL
row,absorbance,Binder
1,0.14,B1
2,0.12,B2
3,0.12,B3
4,0.15,B4

# Biological target: T2, HER2-ECD-Fc
# Assay: ELISA on HER2-ECD-Fc; antibody at 5 × 10^-6 µg/mL
row,absorbance,Binder
1,0.11,B1
2,0.11,B2
3,0.12,B3
4,0.12,B4

# Biological target: T2, HER2-ECD-Fc
# Assay: ELISA on HER2-ECD-Fc; antibody at 5 × 10^-7 µg/mL
row,absorbance,Binder
1,0.11,B1
2,0.11,B2
3,0.12,B3
4,0.12,B4

# Biological target: T3, HER2-ECD-His (human, UniProt P04626 23-652)
# T3 construct: extracellular domain; also called HER2-His; HER2-ECD-His protein; not shown: His tag
# Assay: SPR (Biacore, CM5), IgG captured by anti-human IgG, HER2-ECD-His as analyte
# Experimental: 2000 RU of goat anti-human IgG (Invitrogen, #H10500) was immobilized onto a CM5 sensor chip by […]. Then, the antibodies were allowed to bind at a rate of 50 μL/min for 5 minutes and then stabilized for 5 minutes by flowing a buffer. After stabilizing the antibodies, the HER2-ECD-His protein was allowed to bind at a rate of 50 μL/min for 4 minutes and then separated by flowing a buffer for 15 minutes. After analyzing the concentration, the resultant was recycled using 10 mM glycine (pH 1.5) and then subjected to the subsequent assay. The affinity of the antibodies was analyzed using the BIAevaluation software.
Kd [nM],koff [s⁻¹],kon [M⁻¹ s⁻¹],Binder
37,0.0025,68000,B4
2,0.00016,81000,B5
8,0.0003,37000,B6
2.8,0.0002,71000,B7

# Biological target: T4, EGFR-ECD-Fc (human, UniProt P00533 25-645)
# T4 construct: extracellular domain; also called extracellular domain of EGFR; not shown: Hinge and Fc region (CH2-CH3) of human IgG1; The protein was produced in the same manner as HER2-ECD-Fc
# Assay: ELISA on ErbB family extracellular domains, Absorbance at 450 nm; antibody concentration not given
# Source text: (§1) It was investigated whether the developed five antibodies of the present disclosure specifically bind to HER2 belonging to the ErbB family proteins by ELISA.
row,binding result,Binder
1,no binding,B1
2,no binding,B2
3,no binding,B3
4,no binding,B4

# Biological target: T5, HER3 (R&D Systems, #348-RB-050) (human, UniProt P21860 20-643)
# T5 construct: extracellular domain; Bought
# Assay: as above
# Source text: as §1
row,binding result,Binder
1,no binding,B1
2,no binding,B2
3,no binding,B3
4,no binding,B4

# Biological target: T1, HER4 (R&D Systems, #1131-ER-050)
# Assay: as above
# Source text: as §1
row,binding result,Binder
1,no binding,B1
2,no binding,B2
3,no binding,B3
4,no binding,B4

# Biological target: T6, HER2-ECD DI Fc (human, UniProt P04626 23-217, limits assumed)
# T6 construct: domain: domain 1; also called domain 1 of the extracellular domains of the HER2 protein; not shown: Hinge and Fc region (CH2-CH3) of human IgG1, at the C-terminus
# Assay: ELISA on plate-coated HER2 domain-Fc fusion (1 µg/mL), anti-human IgG-HRP, Abs 450 nm; antibody concentration not given
# Experimental: (§2) The HER2-ECD DI Fc, HER2-ECD DII Fc, HER2-ECD DIII Fc, HER2-ECD DIV Fc and HER2-ECD Fc fusion proteins were immobilized at 4° C. overnight onto a Costar 96-well plate (Corning, Cat. No. 3590) at a concentration of 1 μg/mL […]. The resultant was washed 3 times with TBS-T (0.05% Triton X-100) and then blocked at room temperature for 1 hour with 100 μL of TBS-T/BSA (5% BSA). After washing the blocked plate 3 times and adding the anti-HER2 antibody, the antibody was allowed to bind at room temperature for 1 hour. After washing 3 times and then adding anti-human IgG-HRP diluted to 1:3,000 in TBS-T/BSA, as a secondary antibody, the antibody was allowed to bind at room temperature for 1 hour. After washing the resultant 3 times and adding TMB (SurModics, Cat. No. TMBC-1000-01), the mixture was allowed to develop color at room temperature for 5 minutes. Then, the color development was stopped by adding 1 N sulfuric acid (DukSan, Cat. No. 254). Absorbance was measured at 450 nm using Victor X3 (PerkinElmer, Cat. No. 2030-0030).
row,binding result,Binder
1,no binding,B1
2,no binding,B2

# Biological target: T7, HER2-ECD DIII Fc (human, UniProt P04626 342-510, limits assumed)
# T7 construct: domain: domain 3; also called domain 3 of the extracellular domains of the HER2 protein; not shown: Hinge and Fc region (CH2-CH3) of human IgG1, at the C-terminus
# Assay: as above
# Experimental: as §2
row,binding result,Binder
1,no binding,B1
2,no binding,B3
3,no binding,B4
